# B1: Flagellar protein FliT (Salmonella typhimurium), P0A1N2 (parent)
# chain: MTSTVEFINRWQRIALLSQSLLELAQRGEWDLLLQQEVSYLQSIETVMEKQTPPGITRSIQDMVAGYIKQTLDNEQLLKGLLQQRLDELSSLIGQSTRQKSLNNAYGRLSGMLLVPDAPGAS
# partner: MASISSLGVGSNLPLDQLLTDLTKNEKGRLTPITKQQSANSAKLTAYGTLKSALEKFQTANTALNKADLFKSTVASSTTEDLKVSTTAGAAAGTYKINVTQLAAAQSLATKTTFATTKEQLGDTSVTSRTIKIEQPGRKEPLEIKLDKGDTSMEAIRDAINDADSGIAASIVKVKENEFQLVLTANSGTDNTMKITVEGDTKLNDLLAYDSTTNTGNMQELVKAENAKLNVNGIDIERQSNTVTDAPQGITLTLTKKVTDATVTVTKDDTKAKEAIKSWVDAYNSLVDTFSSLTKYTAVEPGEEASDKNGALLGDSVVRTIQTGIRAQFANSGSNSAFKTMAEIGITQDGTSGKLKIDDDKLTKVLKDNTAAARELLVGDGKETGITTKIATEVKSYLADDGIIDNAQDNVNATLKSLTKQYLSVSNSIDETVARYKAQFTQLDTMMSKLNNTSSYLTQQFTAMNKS
# Variants of: B1
# Conditions: with flid_salty fliD
row,Variant,effect of a mutation on the interaction
1,K79A,disrupting interaction strength
2,E75A,decreasing interaction strength
